Assay results as given in the supplement of paper PMC7877785.
± gives the uncertainty stated by the source.

Experiment: self-splicing fitness, log relative to wild type (ln ratio); higher = more splicing; Tetrahymena group I intron in knt gene, E. coli kanamycin selection, DiMSum; sequences stand for … in CUCUCU…GGAGGGAAAAGUUAUCAGGCAUGCACCUGGUAGCUAGUCUUUAAACCAAUAGAUUGCAUCGGUUUAAAAGGCAAGACCGUCAAAUUGCGGGAAAGGGGUCAACAGCCGUUCAGUACCAAGUCUCAGGGGAAACUUUGAGAUGGCCUUGCAAAGGGUAUGGUAAUAAGCUGACGGACAUGGUCCUAACCACGCAGCCAAGUCCUAAGUCAACAGAUCUUCUGUUGAUAUGGAUGCAGUUCACAGACUAAAUGUCGGUCGGGGAAGAUGUAUUCUUCUCAUAAGAUAUAGUCGGACCUCUCCUUAAUGGGAGCUAGCGGAUGAAGUGAUGCAACACUGGAGCCGCUGGGAACUAAUUUGUAUGCGAAAGUAUAUUGAUUAGUUUUGGAGUACUCGUGGUCG
How it was run: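 A randomised library covering all eight P1ex-region intron nucleotides was built with the intron in the knt kanamycin-resistance gene on pET-22b(+) and held in E. coli BL21(DE3). Cells were grown overnight at 37°C or 30°C on LB agar, with or without 25 μg/mL kanamycin, plus 100 μg/mL carbenicillin, 50 μM IPTG and 0.2% rhamnose, and pooled colonies were amplicon-sequenced on an Illumina HiSeq 2500. DiMSum fitness is the error-weighted combination of wild-type-normalised replicate fold changes, kanamycin versus none.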

| Sequence | self-splicing fitness (ln) (30 °C) | self-splicing fitness (ln) (37 °C) |
| --- | --- | --- |
| CCACAGCAAUAUUACGGACA | -3.12 ± 0.21 | -2.51 ± 0.18 |
| CCACAGCAAUAUUACGGAGG | -3.92 ± 0.22 | -1.16 ± 0.12 |
| CCACAGCAAUAUUACGGCAC | -4.06 ± 0.21 | -2.87 ± 0.22 |
| CCACAGCAAUAUUACGUAAC | -3.47 ± 0.2 | -1.35 ± 0.16 |
| CCACAGCAAUAUUACGUCAA | -2.92 ± 0.15 | -2.22 ± 0.21 |
| CCACAGCAAUAUUACGUCUA | -3.53 ± 0.24 | -2.43 ± 0.17 |
| CCACAGCAAUAUUACGUGCG | -2.79 ± 0.11 | -1.72 ± 0.12 |
| CCAGAGCAAUAUUACGCACC | – | -2.37 ± 0.34 |
| CCAGAGCAAUAUUACGCAGC | -3.64 ± 0.28 | -1.77 ± 0.24 |
| CCAGAGCAAUAUUACGCGGC | -3.88 ± 0.39 | -2.96 ± 0.24 |
| CCAGAGCAAUAUUACGCUGU | -3.95 ± 0.44 | – |
| CCAGAGCAAUAUUACGGAAG | -2.32 ± 0.13 | -2.1 ± 0.19 |
| CCAGAGCAAUAUUACGGCAC | -3.21 ± 0.32 | -2.73 ± 0.27 |
| CCAGAGCAAUAUUACGGUAG | -2.14 ± 0.11 | -2.34 ± 0.2 |
| CCAGAGCAAUAUUACGGUAU | -3.47 ± 0.2 | -2.75 ± 0.26 |
| CCAGAGCAAUAUUACGGUCC | -3.93 ± 0.33 | -1.51 ± 0.34 |
| CCAGAGCAAUAUUACGUAGU | -4.61 ± 0.22 | -2.87 ± 0.21 |
| CCAGAGCAAUAUUACGUCAA | -4.08 ± 0.39 | -2.3 ± 0.35 |
| CCAGAGCAAUAUUACGUCCU | -4.05 ± 0.22 | -2.48 ± 0.25 |
| CCAGAGCAAUAUUACGUCGU | -3.93 ± 0.24 | -2.19 ± 0.21 |
| CCAGAGCAAUAUUACGUGGC | -1.95 ± 0.18 | -3.77 ± 0.39 |
| CCAGAGCAAUAUUACGUUAA | -4.07 ± 0.37 | -2.91 ± 0.29 |

| Sequence | self-splicing fitness (ln) (30 °C) | self-splicing fitness (ln) (37 °C) |
| --- | --- | --- |
| CCAUAGCAAUAUUACGAAGU | -3.61 ± 0.21 | -2.64 ± 0.22 |
| CCAUAGCAAUAUUACGAAUC | -3.22 ± 0.14 | -1.38 ± 0.17 |
| CCAUAGCAAUAUUACGACCA | -2.52 ± 0.46 | – |
| CCAUAGCAAUAUUACGACCU | -2.92 ± 0.33 | -1.28 ± 0.41 |
| CCAUAGCAAUAUUACGACGA | -3.14 ± 0.21 | -1.42 ± 0.14 |
| CCAUAGCAAUAUUACGACGC | -2.27 ± 0.26 | -2.51 ± 0.39 |
| CCAUAGCAAUAUUACGAGAC | -3.58 ± 0.3 | -0.492 ± 0.17 |
| CCAUAGCAAUAUUACGAGAG | -3.57 ± 0.16 | -2.56 ± 0.14 |
| CCAUAGCAAUAUUACGAGCG | -0.63 ± 0.095 | -2.73e-06 ± 0.12 |
| CCAUAGCAAUAUUACGAUCG | -0.244 ± 0.053 | 0.361 ± 0.081 |
| CCAUAGCAAUAUUACGCAAU | -3.67 ± 0.15 | -2.64 ± 0.15 |
| CCAUAGCAAUAUUACGCAGU | -2.94 ± 0.14 | -3.37 ± 0.42 |
| CCAUAGCAAUAUUACGCCCG | -0.369 ± 0.16 | 0.418 ± 0.21 |
| CCAUAGCAAUAUUACGCGAC | -3.56 ± 0.13 | -2.9 ± 0.18 |
| CCAUAGCAAUAUUACGCUCU | -4.23 ± 0.3 | -2.85 ± 0.24 |
| CCAUAGCAAUAUUACGGAAG | -3.19 ± 0.16 | -1.67 ± 0.14 |
| CCAUAGCAAUAUUACGGACA | -3.36 ± 0.23 | -1.14 ± 0.16 |
| CCAUAGCAAUAUUACGGAGU | -4 ± 0.29 | -2.42 ± 0.17 |
| CCAUAGCAAUAUUACGGGGA | -2.97 ± 0.18 | -2.68 ± 0.22 |
| CCAUAGCAAUAUUACGGGUC | -3.41 ± 0.35 | -2.23 ± 0.23 |
| CCAUAGCAAUAUUACGGUAC | -3.2 ± 0.19 | -3.05 ± 0.27 |
